The assay has as its target Asialo-BSM (desialylated bovine submaxillary mucin) (bovine). In words: fluorescence binding assay on an Asialo-BSM-coated 96-well plate (0.5 µg/well), biotinylated VVA detected with Alexa Fluor 488 streptavidin, fit with GraphPad Prism.

Data on one substance can be found in patent US20240092935A1.

“Vicia villosa agglutinin (VVA), biotinylated (from UniProt P56625 1-185)”: the dissociation constant (Kd) came to 53.3 nM.

One may read the Kd as the equilibrium constant for the complex coming apart. The low end stands for tighter binding, the high end for weaker binding.
